According to patent publication US10689628B2, “Method of making variant LovD polypeptides” (THE REGENTS OF THE UNIVERSITY OF CALIFORNIA, priority 2009, dated 2020):
“Also recorded” adds a separate entry of the source.

Assays:
LovD = target: T1, LovD (Aspergillus terreus, UniProt Q9Y7D1); conditions: cited from earlier work; for apparent kcat: WO 2007/139871, acyl donor with LovD and monacolin J; for conversion / acylation of monacolin J with acyl-CoA: WO 2007/139871: 1 mM monacolin J, 4 mM acyl-CoA, 10 uM LovD, 10 hours; for substrate quality for LovD (in words): WO 2007/139871, acyl-CoA substrates
T1 construct: made in house; host or cells: E. coli BL21(DE3)/pAW31

[1] = Native gel / SDS-PAGE of LovD proteins (oligomer, insoluble protein); format: physicochemical; conditions: for native gel: oligomer / monomer / stability (in words): DTT fixed at 2 mM
Protocol: FIG. 2. (a) SDS-PAGE gel LovD protein (WT) from E. coli BL21(DE3)/pAW31; (b) native gel of LovD protein (WT) and A1-A8 respectively, DTT was fixed at 2 mM for all samples.
LovD protein was purified to homogeneity by one step Ni-NTA column (FIG. 2a). […] The disulfide bonds between the proteins are spurious for protein crystallization because the monomer and oligomer are different species (see, e.g. Nemoto et al., 2006; J Appl Physiol 100(5):1688-91). One of our purposes was to remove the intermolecular disulfide bonds. By replacing the cysteine residues with alanine, we hope the resultant LovD mutant can keep the acyl-transferase activity while breaking the intermolecular disulfide bonds. […] We reasoned that the solubility of LovD may be changed when the intermolecular disulfide bonds between wild type LovD was eliminated (see, e.g. Lindberg et al., M. 2004; Proc Natl Acad Sci USA 101(45):15893-8).
We ran the native gel of all the mutant proteins together with the wild type LovD protein (FIG. 2b).

MJ acid and DMB-S-MMP = assay: Kinetic assay of LovD wild type and mutants towards MJ acid and DMB-S-MMP; format: biochemical
Protocol: Dimethyl sulfoxide (DMSO) was added to a final concentration of 10% to facilitate the solubilization of DMB-S-MMP. To compare the turnover rate of all mutants and the wild type protein, the MJ acid concentration was set at 1 mM and the DMB-S-MMP was set at 2 mM, the protein concentration was fixed at 10 uM, after the reaction was performed at room temperature for 2 hours, the reaction was quenched by adding EA/2% TFA. The organic phase was dried and redissolved in ACN for HPLC analysis.
The concentration of DMB-S-MMP was fixed at 2 mM and MJ acid concentration was varied from 0.25 mM to 2.0 mM. […] For the rest LovD mutant proteins, we only checked the conversion of one time point.
To obtain KM values for MJA and kcat, the DMB-SMMP concentration was fixed at 2 mM, while the concentration of MJA was varied from 0.25 to 5 mM. To obtain KM values for DMB-SMMP and kcat, the MJA concentration was fixed at 2 mM, while the concentration of DMB-SMMP was varied from 0.5 to 5 mM. Dimethyl sulfoxide (DMSO) was added to a final concentration of 10% to facilitate the solubilization of DMB-SMMP. At different time points of the kinetic assay, an aliquot of the reaction mixture was removed, quenched with 1% TFA and extracted with EA containing 1% acetic acid. The organic phase was separated, dried, resolubilized by acetonitrile (ACN) and analyzed by a Beckman Gold HPLC using a reverse phase C18 column (Alltech Apollo 5μ, 150 mm×4.6 mm) and a linear gradient: 60% ACN in water (0.1% trifluoroacetic acid (TFA)) to 95% ACN in water (0.1% TFA) for 10 min, 1 mL/min. Conversion of MJA to SVA was measured by integration of the peaks at 238 nm.

E. coli YT2 = assay: Whole-cell biocatalysis, MJ acid and DMB-S-MMP to simvastatin acid (Example 1)
Protocol: Whole cell biocatalytic activities based on the conversion from MJ acid and DMB-S-MMP (gray column) and soluble protein expression level comparison between the wild type LovD and the mutants (black column). For the whole cell activity, the LB culture was concentrated 10 times to mimic high density fermentation, 15 mM MJ acid and 18 mM DMB-S-MMP were used to compare the conversion. The conversion based on 8 hours was used to compare the whole cell activity between the wild type LovD and the mutants. The wild type LovD conversion was normalized to 100%, the data points are averaged values of two runs.
The LovD wild type and all mutants were cultured side-by-side for comparison. A single colony of the freshly transformed strains was used to inoculate a 5 ml LB culture supplemented with 35 mg/L kan and grown overnight at 37° C. The next morning, 100 μl of the overnight culture (0.2%) was inoculated into 50 ml LB medium with Kan. When OD600 reached 0.4˜0.6, 0.1 mM IPTG was added to the culture and expression of LovD was performed at 20° C. for 16 hrs. To mimic the high density fermentation conditions, the cells were concentrated 10-fold before addition of substrates. A 14 ml aliquot of the culture was collected by centrifugation (4° C., 4000 g, 10 min). The cell pellet was gently resuspended in 1330 ml of the supernatant, followed by addition of 70 ml of a MJ acid stock solution (300 mM in water) to make final concentration 15 mM. The concentrated culture was then resuspended and separated into seven 200 μl samples, 1 μl of pure DMB-S-MMP was added to each sample (final concentration ˜20 mM). The cultures were then shaken at 300 rpm at room temperature. At each time point, a total extraction was performed by adding 10 μl of 20% SDS to completely lyse the cells, followed by liquid—liquid extraction with 500 μl EA/2% TFA. The organic phase was removed, evaporated, and redissolved in 500 μl ACN for HPLC analysis.
We then tested the in vivo activity of the nine mutants in comparison to the wild type LovD. Both the mutants and the wild type LovD strains were grown in LB media, expressed and concentrated 10 times to mimic the high density fermentation after 16 hours expression at 20° C. Both MJ acid and DMB-S-MMP were added to final 15 mM and 18 mM respectively to start the reaction. At 8 hours, 100 μl sample culture was taken out to check the total conversion from MJ acid to simvastatin acid.

[2] = DMB-S-MMP fixed at 2 mM, MJ acid 0.25 mM to 2.0 mM

Which results are given for `CC(C)(COP(=O)(O)OP(=O)(O)OC[C@H]1O[C@@H](n2cnc3c(N)ncnc32)[C@H](O)[C@@H]1OP(=O)(O)O)[C@@H](O)C(=O)NCCC(=O)NCCSC(=O)c1ccccc1` [benzoyl-CoA]?
apparent kcat (LovD): 0.00267 s⁻¹; conversion / acylation of monacolin J with acyl-CoA (LovD): ~70%

For `CCCCCCCCCCCCCCCC(=O)SCCNC(=O)CCNC(=O)[C@H](O)C(C)(C)COP(=O)(O)OP(=O)(O)OC[C@H]1O[C@@H](n2cnc3c(N)ncnc32)[C@H](O)[C@@H]1OP(=O)(O)O` [palmitoyl-CoA], which “substrate quality for LovD (in words)” value (LovD) is on record?
The value was “inactive”.

Which “substrate quality for LovD (in words)” value (LovD) does the source give for `CCCC(=O)SCCNC(=O)CCNC(=O)[C@H](O)C(C)(C)COP(=O)(O)OP(=O)(O)OC[C@H]1O[C@@H](n2cnc3c(N)ncnc32)[C@H](O)[C@@H]1OP(=O)(O)O` [butyryl-CoA] here?
Its value is “optimal alkylacyl-CoA substrate”.

With `CC(O)CC(=O)SCCNC(=O)CCNC(=O)[C@H](O)C(C)(C)COP(=O)(O)OP(=O)(O)OC[C@H]1O[C@@H](n2cnc3c(N)ncnc32)[C@H](O)[C@@H]1OP(=O)(O)O` (stereo partly drawn) [β-hydroxylbutyryl-CoA] as the molecule, how does the “substrate quality for LovD (in words)” value (LovD) read?
Its value is “excellent substrates”.

Which “substrate quality for LovD (in words)” value (LovD) does the source give for `CC(C)(COP(=O)(O)OP(=O)(O)OC[C@H]1O[C@@H](n2cnc3c(N)ncnc32)[C@H](O)[C@@H]1OP(=O)(O)O)[C@@H](O)C(=O)NCCC(=O)NCCSC(=O)CC(=O)O` [malonyl-CoA] here?
Its value is “inactive”.

For `C/C=C/C(=O)SCCNC(=O)CCNC(=O)[C@H](O)C(C)(C)COP(=O)(O)OP(=O)(O)OC[C@H]1O[C@@H](n2cnc3c(N)ncnc32)[C@H](O)[C@@H]1OP(=O)(O)O` [crotonyl-CoA], which “conversion / acylation of monacolin J with acyl-CoA” value (LovD) is on record?
The value was 6%.

For `CC[C@H](C)C(=O)SCCNC(C)=O` [α-S-methylbutyryl-SNAC], which apparent kcat (LovD) is on record?
The apparent kcat was roughly 0.00067 s⁻¹.

Which “substrate quality for LovD (in words)” value (LovD) does the source give for `CC(=O)CC(=O)SCCNC(=O)CCNC(=O)[C@H](O)C(C)(C)COP(=O)(O)OP(=O)(O)OC[C@H]1O[C@@H](n2cnc3c(N)ncnc32)[C@H](O)[C@@H]1OP(=O)(O)O` [Acetoacetyl-CoA] here?
Its value is “excellent substrates”.

For `CCCC(=O)SCCNC(C)=O` [SNAC, butyryl-SNAC], which apparent kcat (LovD) is on record?
Its apparent kcat is 0.0015 s⁻¹.

B1: wild type LovD: A. terreus LovD acyltransferase polypeptide, SEQ ID NO: 1 (protein, listed as Aspergillus terreus)
chain: MGSIIDAAAAADPVVLMETAFRKAVKSRQIPGAVIMARDCSGNLNYTRCFGARTVRRDECNQLPPLQVDTPCRLASATKLLTTIMALQCMERGLVDLDETVDRLLPDLSAMPVLEGFDDAGNARLRERRGKITLRHLLTHTSGLSYVFLHPLLREYMAQGHLQSAEKFGIQSRLAPPAVNDPGAEWIYGANLDWAGKLVERATGLDLEQYLQENICAPLGITDMTFKLQQRPDMLARRADQTHRNSADGRLRYDDSVYFRADGEECFGGQGVFSGPGSYMKVLHSLLKRDGLLLQPQTVDLMFQPALEPRLEEQMNQHMDASPHINYGGPMPMVLRRSFGLGGIIALEDLDGENWRRKGSLTFGGGPNIVWQIDPKAGLCTLAFFQLEPWNDPVCRDLTRTFEHAIYAQYQQG
What does the source list for B1?
fraction of LovD protein forming oligomer ([1]; native gel, even at high DTT concentration): ~20%; fraction of expressed LovD protein insoluble ([1]; overexpressed in E. coli): more than 50%; Km (MJ acid and DMB-S-MMP; [2]): 640 µM; kcat (MJ acid and DMB-S-MMP; [2]): 0.62 min⁻¹; kcat (MJ acid and DMB-S-MMP; FIG. 1 legend, MJ acid and DMB-S-MMP to simvastatin): 0.6 min'; time to convert 15 mM MJ acid into simvastatin acid (E. coli YT2; whole cell, culture concentrated 10 times, 15 mM MJ acid, 18 mM DMB-S-MMP): 12 h

B2: A4: LovD C72A mutant (protein, UniProt Q9Y7D1 1-413, looked up, variant C72A)
Monacolin J acid …: MGSIIDAAAAADPVVLMETAFRKAVKSRQIPGAVIMARDCSGNLNYTRCFGARTVRRDECNQLPPLQVDTPARLASATKLLTTIMALQCMERGLVDLDETVDRLLPDLSAMPVLEGFDDAGNARLRERRGKITLRHLLTHTSGLSYVFLHPLLREYMAQGHLQSAEKFGIQSRLAPPAVNDPGAEWIYGANLDWAGKLVERATGLDLEQYLQENICAPLGITDMTFKLQQRPDMLARRADQTHRNSADGRLRYDDSVYFRADGEECFGGQGVFSGPGSYMKVLHSLLKRDGLLLQPQTVDLMFQPALEPRLEEQMNQHMDASPHINYGGPMPMVLRRSFGLGGIIALEDLDGENWRRKGSLTFGGGPNIVWQIDPKAGLCTLAFFQLEPWNDPVCRDLTRTFEHAIYAQYQQG
Which “native gel: oligomer / monomer / stability (in words)” value [1] does the source give for B2 here?
The value was “not very stable; also recorded: less proteins”.

B3: A5: LovD C89A mutant (protein, UniProt Q9Y7D1 1-413, looked up, variant C89A)
Monacolin J acid …: MGSIIDAAAAADPVVLMETAFRKAVKSRQIPGAVIMARDCSGNLNYTRCFGARTVRRDECNQLPPLQVDTPCRLASATKLLTTIMALQAMERGLVDLDETVDRLLPDLSAMPVLEGFDDAGNARLRERRGKITLRHLLTHTSGLSYVFLHPLLREYMAQGHLQSAEKFGIQSRLAPPAVNDPGAEWIYGANLDWAGKLVERATGLDLEQYLQENICAPLGITDMTFKLQQRPDMLARRADQTHRNSADGRLRYDDSVYFRADGEECFGGQGVFSGPGSYMKVLHSLLKRDGLLLQPQTVDLMFQPALEPRLEEQMNQHMDASPHINYGGPMPMVLRRSFGLGGIIALEDLDGENWRRKGSLTFGGGPNIVWQIDPKAGLCTLAFFQLEPWNDPVCRDLTRTFEHAIYAQYQQG
Which “native gel: oligomer / monomer / stability (in words)” value [1] does the source give for B3 here?
Its value is “not very stable; also recorded: less proteins”.

B4: A7: LovD C266A mutant (protein, UniProt Q9Y7D1 1-413, looked up, variant C266A)
Monacolin J acid …: MGSIIDAAAAADPVVLMETAFRKAVKSRQIPGAVIMARDCSGNLNYTRCFGARTVRRDECNQLPPLQVDTPCRLASATKLLTTIMALQCMERGLVDLDETVDRLLPDLSAMPVLEGFDDAGNARLRERRGKITLRHLLTHTSGLSYVFLHPLLREYMAQGHLQSAEKFGIQSRLAPPAVNDPGAEWIYGANLDWAGKLVERATGLDLEQYLQENICAPLGITDMTFKLQQRPDMLARRADQTHRNSADGRLRYDDSVYFRADGEEAFGGQGVFSGPGSYMKVLHSLLKRDGLLLQPQTVDLMFQPALEPRLEEQMNQHMDASPHINYGGPMPMVLRRSFGLGGIIALEDLDGENWRRKGSLTFGGGPNIVWQIDPKAGLCTLAFFQLEPWNDPVCRDLTRTFEHAIYAQYQQG
For B4, which “native gel: oligomer / monomer / stability (in words)” value [1] is on record?
Its value is “not very stable; also recorded: less proteins”.

B5: A9: LovD C395A mutant (protein, UniProt Q9Y7D1 1-413, looked up, variant C395A)
Monacolin J acid …: MGSIIDAAAAADPVVLMETAFRKAVKSRQIPGAVIMARDCSGNLNYTRCFGARTVRRDECNQLPPLQVDTPCRLASATKLLTTIMALQCMERGLVDLDETVDRLLPDLSAMPVLEGFDDAGNARLRERRGKITLRHLLTHTSGLSYVFLHPLLREYMAQGHLQSAEKFGIQSRLAPPAVNDPGAEWIYGANLDWAGKLVERATGLDLEQYLQENICAPLGITDMTFKLQQRPDMLARRADQTHRNSADGRLRYDDSVYFRADGEECFGGQGVFSGPGSYMKVLHSLLKRDGLLLQPQTVDLMFQPALEPRLEEQMNQHMDASPHINYGGPMPMVLRRSFGLGGIIALEDLDGENWRRKGSLTFGGGPNIVWQIDPKAGLCTLAFFQLEPWNDPVARDLTRTFEHAIYAQYQQG
Which “native gel: oligomer / monomer / stability (in words)” value [1] does the source give for B5 here?
Its value is “no soluble proteins at all”.

What about the “whole cell activity compared to the wild type (in words)” value (E. coli YT2; 8 hours conversion, alanine scanning mutants) of the same molecule?
Its value is “no activity”.

B6: A2: LovD C49A mutant (protein, UniProt Q9Y7D1 1-413, looked up, variant C49A)
Monacolin J acid …: MGSIIDAAAAADPVVLMETAFRKAVKSRQIPGAVIMARDCSGNLNYTRAFGARTVRRDECNQLPPLQVDTPCRLASATKLLTTIMALQCMERGLVDLDETVDRLLPDLSAMPVLEGFDDAGNARLRERRGKITLRHLLTHTSGLSYVFLHPLLREYMAQGHLQSAEKFGIQSRLAPPAVNDPGAEWIYGANLDWAGKLVERATGLDLEQYLQENICAPLGITDMTFKLQQRPDMLARRADQTHRNSADGRLRYDDSVYFRADGEECFGGQGVFSGPGSYMKVLHSLLKRDGLLLQPQTVDLMFQPALEPRLEEQMNQHMDASPHINYGGPMPMVLRRSFGLGGIIALEDLDGENWRRKGSLTFGGGPNIVWQIDPKAGLCTLAFFQLEPWNDPVCRDLTRTFEHAIYAQYQQG
For B6, which “native gel: oligomer / monomer / stability (in words)” value [1] is on record?
The value was “very similar to WT”.

B7: A6: LovD C216A mutant (protein, UniProt Q9Y7D1 1-413, looked up, variant C216A)
Monacolin J acid …: MGSIIDAAAAADPVVLMETAFRKAVKSRQIPGAVIMARDCSGNLNYTRCFGARTVRRDECNQLPPLQVDTPCRLASATKLLTTIMALQCMERGLVDLDETVDRLLPDLSAMPVLEGFDDAGNARLRERRGKITLRHLLTHTSGLSYVFLHPLLREYMAQGHLQSAEKFGIQSRLAPPAVNDPGAEWIYGANLDWAGKLVERATGLDLEQYLQENIAAPLGITDMTFKLQQRPDMLARRADQTHRNSADGRLRYDDSVYFRADGEECFGGQGVFSGPGSYMKVLHSLLKRDGLLLQPQTVDLMFQPALEPRLEEQMNQHMDASPHINYGGPMPMVLRRSFGLGGIIALEDLDGENWRRKGSLTFGGGPNIVWQIDPKAGLCTLAFFQLEPWNDPVCRDLTRTFEHAIYAQYQQG
Which “native gel: oligomer / monomer / stability (in words)” value [1] does the source give for B7 here?
The value was “very similar to WT”.

B8: A8: LovD C380A mutant (protein, UniProt Q9Y7D1 1-413, looked up, variant C380A)
Monacolin J acid …: MGSIIDAAAAADPVVLMETAFRKAVKSRQIPGAVIMARDCSGNLNYTRCFGARTVRRDECNQLPPLQVDTPCRLASATKLLTTIMALQCMERGLVDLDETVDRLLPDLSAMPVLEGFDDAGNARLRERRGKITLRHLLTHTSGLSYVFLHPLLREYMAQGHLQSAEKFGIQSRLAPPAVNDPGAEWIYGANLDWAGKLVERATGLDLEQYLQENICAPLGITDMTFKLQQRPDMLARRADQTHRNSADGRLRYDDSVYFRADGEECFGGQGVFSGPGSYMKVLHSLLKRDGLLLQPQTVDLMFQPALEPRLEEQMNQHMDASPHINYGGPMPMVLRRSFGLGGIIALEDLDGENWRRKGSLTFGGGPNIVWQIDPKAGLATLAFFQLEPWNDPVCRDLTRTFEHAIYAQYQQG
With B8 as the molecule, how does the “native gel: oligomer / monomer / stability (in words)” value [1] read?
Its value is “very similar to WT”.
